Legend:
[1] = test system: MS2 coat protein; assay: apparent KD of MS2 coat protein, switch ON state; designed switch direction (-1 OFF switch, 1 ON switch): -1; higher = weaker reporter binding; details: FMN input: 0 or 200 uM; Eterna round: R93 (includes R88 designs)
Outline: (§1)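 Apparent KD is reported per design as the median of normalised binding-curve fits across its clusters. The RNA switches were made by on-chip transcription from Illumina sequencing clusters. SNAP-549-labelled MS2 coat protein was then added in twofold steps (0.7 or 1.5 nM to 3 µM; 0.8–1.5 h to 10–20 min per step) in 100 mM Tris-HCl pH 7.5, 80 mM KCl, 4 mM MgCl2, without or with constant ligand.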

[2] = test system: MS2 coat protein; assay: apparent KD of MS2 coat protein, switch OFF state (with FMN for OFF switches, without FMN for ON switches); designed switch direction (-1 OFF switch, 1 ON switch): -1; higher = weaker reporter binding; details: FMN input: 0 or 200 uM; Eterna round: R93 (includes R88 designs)
Outline: as §1

Row | Sequence | apparent KD of MS2 coat protein [1] | apparent KD of MS2 coat protein [2]
1 | AUAAGUCGAGGAUAUACGAAAAGCUAGCGAAAGCUAGCGGGACAUGAGGAUCACCCAUGUAGAAGGCGACAAUA [Tetraloop hairpin BlockHead... 61% 5] | 28.4 nM | 57 nM
2 | ACAUGACAUGAGGAUCACCCAUGUGAGGAUAUGCGAAAAAAAAAAAAAAAAAAAAUUGGCAGAAGGCACAAAAU [Jean Baudrillard] | 202 nM | 153 nM
3 | AAGAAGGUAGGAUAUACUAAAGAAAUGAAAAGAAAUAAAGAACAUGAGGAUCACCCAUGUAGAAGGACCAAGAA [Webenre] | 25.8 nM | 32.2 nM
4 | AAGGGACAUGAGGAUCACCCAUGUCAGGAUAUGAUGCGAAUAAAGAAAGAAGAAAGCAUCAGAAGGGACACCAA [58%, Disencluded 3, 4] | 24.4 nM | 33.7 nM
5 | AAGAAGUAAGGAUAUGCUGCUCGUCACAAAAGUGAUGAGUAGCAGAAGGUACAUGAGGAUCACCCAUGUAAAGA [JL eternac mod 3] | 26 nM | 20.3 nM
6 | AAGAAACAUGAGGAUCACCCAUGUCAGGAUAUCGAAAAGAAAAGAAAAGAAAGAAGAACGAGAAGGGACAAAGG [Qakare Ibi] | 59.6 nM | 67.8 nM
7 | AACAAACAUGAGGAUCACCCAUGUCAGGAUAUGCACAAACAAACAAACAAACAAGCAAGCAGAAGGGACACAAC [Amethyst 89] | 13.7 nM | 27.6 nM
8 | CUCUUGUCAGGAUAUCGAAGAAAAGAAAAGAAAGAAAAGAACGAGAAGGGACAUGAGGAUCACCCAUGUAAGAA [EteRNA is fun!] | 61.5 nM | 67.6 nM
9 | CAGUACUGAGGAUAUACAUGAGGAUCACCCAUGUAUCCAAGCUAGGAAACUAGCAAAUGUAGAAGGCAGUACUG [Ex3: 821] | 37.5 nM | 319 nM
10 | AUCUAGUGAGGAUAUCGUACAAUAUGGAAAACAUAGAGGUACGAGAAGGCACAUGAGGAUCACCCAUGUAAAAC [May 100] | 26.8 nM | 36.5 nM
11 | UCCUCACAUGAGGAUCACCCAUGUGAGGAUAUGUACAUCAGGAAAAAAAAACUGAUGUACAGAAGGCACAUGGG [Design 8: Super Stable G-C] | 30.8 nM | 15.2 nM
12 | AAAAAACAUGAGGAUCACCCAUGUAAGGAUAUGCUGAAAAACACGGAAAAACGUGACAGCAGAAGGUACAAAAA [66%, Wbt, 32] | 21.6 nM | 30.4 nM
13 | AACUGACAUGAGGAUCACCCAUGUCAGGAUAUGCUUCAUAAAAACAAACAAAAAUGAUGCAGAAGGGACAUGGG [Design 31 :P Sub-opt 7] | 17.1 nM | 39.5 nM
14 | AAGAAACAUGAGGAUCACCCAUGUCAGGAUAUAGAAAAGAAAAGAAAAGAAAGAAGAACUAGAAGGGACAAAGG [Menkare] | 34.1 nM | 34 nM
15 | AGUCAUACAGGAUAUACAUGAGGAUCACCCAUGUAAAUCCUAAAAAGGUGAUCCUCAUGUAGAAGGGUAUGACA [EX3 219: Super Stable 19] | 21.8 nM | 17.7 nM
16 | AACAGUACAGGAUAUACAUGAGGAUCACCCAUGUGAAGAUUAAGAAGAAACCCACAAAGUAGAAGGGUACUGGA [Ruby 92] | 29 nM | 47.4 nM
17 | AACAGUACAGGAUAUACAUGAGGAUCACCCAUGUAAAGGGAAUAAAACAAAAAAAAAUGUAGAAGGGUACUGGA [Mat - Exclusion 3 - Eli mod - D66] | 75.1 nM | 110 nM
18 | AAAACACAUGAGGAUCACCCAUGUGAGGAUAUGCUAUGGAAAUAAAAAAUAAAACAUAGCAGAAGGCACAAAAA [Mat - Exclusion 1 - Eli mod - D40] | 23.9 nM | 39 nM
19 | AAAUAGCAAGGAUAUACAUGAGGAUCACCCAUGUGAACAAGGUAUGGAAUAGAAUAGAGUAGAAGGUGCAAAUA [Mod 2 of Ex 3 Tesla 8 - Jieux - Exclusion 3] | 31.3 nM | 43.4 nM
20 | AAAAAGUGAGGAUAUGCGCUGUCAAGUAGACACGAGCAGUCGUAGAAGGCACAUGAGGAUCACCCAUGUUCAAA [EX4 Malc#22] | 25.4 nM | 16 nM

Row | Sequence | apparent KD of MS2 coat protein [1] | apparent KD of MS2 coat protein [2]
21 | AAAAAGUGAGGAUAUGUACGAAAAAAUAAAAAAAUAAAAGUACAGAAGGCACAUGAGGAUCACCCAUGUGAAAA [EX4 397: Minimal 10] | 27.4 nM | 22.9 nM
22 | AAAUAGCAAGGAUAUACAUGAGGAUCACCCAUGUAAAAAUGGAAAGUAAUAAAAUAAAGUAGAAGGUGCAAAUA [Ex 3 Tesla 3] | 26.9 nM | 37 nM
23 | GAAAACAGAGGAUAUACAUAAGCUAGACGAAAGUCUAGCAAACAUGAGGAUCACCCAUGUAGAAGGCUGAAGAA [Meechl Mod] | 29.2 nM | 27.7 nM
24 | AAGGGACAUGAGGAUCACCCAUGUCAGGAUAUGAUGCGAAUAAAGAAAGAAUAAAGCAUCAGAAGGGACAAAAA [Mat - Exclusion 1 - Eli mod - D63] | 35.6 nM | 55.7 nM
25 | CGCUAGUCAGGAUAUACGAACAUGUCAAAAGACGUGAAGGGACAUGAGGAUCACCCAUGUAGAAGGGACUAGCG [Mat - Exclusion 2 - JL mod - D4] | 30.2 nM | 131 nM
26 | AAGAACUGAGGAUAUGCAAAAGGGAAAGCUGAUCCUCAUCUACAUGAGGAUCACCCAUGUAGAAGGCGGGAAAU [Aveerve] | 63.4 nM | 47.7 nM
27 | AAAAAGUCAGGAUAUACGAACAUGUCAAAAGACGUGAAGGGACAUGAGGAUCACCCAUGUAGAAGGGACAAGAA [JL Stem Breaker 20] | 85.2 nM | 39.6 nM
28 | AAAAAGUUAGGAUAUACAUGAGGAUCACCCAUGUACACAUAUGGAGAAUAUGGUAGUAGUAGAAGGGACAAAAA [EX2 Malc#15] | 27.1 nM | 31.1 nM
29 | AGCUAGUGAGGAUAUACGAACAUGUCAACAGACUGUAAGGGACAUGAGGAUCACCCAUGUAGAAGGCACUAGCA [Diamond 56] | 59.4 nM | 174 nM
30 | AACAGGUCAGGAUAUGUGGAAAAAAUAAAAAAAAUAAAAACACAGAAGGGACAUGAGGAUCACCCAUGUAAAUA [May 22] | 58 nM | 114 nM
31 | AAUAACAGAGGAUAUACGAAAAUAAGCGGAAACGCAAAGGGACAUGAGGAUCACCCAUGUAGAAGGCUGGAUAA [Tetraloop... 61% 2] | 28.3 nM | 148 nM
32 | CUCUAGUGAGGAUAUGCAAGAAAAGAAGAGAAAGAAAAGAAGCAGAAGGCACAUGAGGAUCACCCAUGUAAGAA [EteRNA is fun!] | 32.4 nM | 71.8 nM
33 | GAAAAACAUGAGGAUCACCCAUGUUAGGAUAUGCUAUGGAAAAUAAAAAAUAAACAUAGCAGAAGGAACAAAAG [Mat - Exclusion 1 - Eli mod - D31] | 20.3 nM | 36.7 nM
34 | AAGAAGUGAGGAUAUCGAAGACUGUCGAAAAGACAGUCGAACGAGAAGGCACAUGAGGAUCACCCAUGUGAAAA [Marsurpial 65% 4] | 22.1 nM | 33.1 nM
35 | AAGAAGUCAGGAUAUGGAAAAGAAAAGAAAAGAAAAGAAAACCAGAAGGGACAUGAGGAUCACCCAUGUAAGAA [Xerxes I the Great] | 44.5 nM | 28.1 nM
36 | AGCUAGUCAGGAUAUACGAACAUGUCAUAAGACGUGAAGGGACAUGAGGAUCACCCAUGUAGAAGGGACUAGCA [74%, Web mod - With 1 more U's] | 36.7 nM | 139 nM
37 | AAACAUGGAGGAUAUACAUGAGGAUCACCCAUGUGUAUAAAAAAAUAUACAAAAGAAUGUAGAAGGCCAUGAAA [Ex 3 Snow] | 36.1 nM | 54.2 nM
38 | AUAAACGGAGGAUAUACAUGAGGAUCACCCAUGUAAAUAAAUAAAAGUUCCUCAAUAAGUAGAAGGUCGAAUAA [JR_Exc003_Sub011] | 12.8 nM | 13 nM
39 | AGCACGUCAGGAUAUACGAACAAAACGGGAGAACUAAAGGGACAUGAGGAUCACCCAUGUAGAAGGGACAAGCA [Diamond 91] | 85.6 nM | 91.1 nM
40 | AAAAAACAUGAGGAUCACCCAUGUGAGGAUAUGCAAAACCCAUAUAAAAAGGGAAAAAGCAGAAGGUACAAAAA [Starry Exclusion 1.2 (wbt round 1 mod)] | 20.7 nM | 21.3 nM

— the supplement of paper PMC9170038
